Assay results as given in PMC4852379.
pKd: −log10 of the molar value.

What was measured:
[1] = biological target: antibody 5J8, FA variant (Q295F/Y296A), EAS-stabilized (human); test: BLI
[2] = biological target: antibody 5J8, wild type (human IgG1 monoclonal antibody) (human); test: BLI

| Substance | pKd [1] | pKd [2] |
| --- | --- | --- |
| Fc gamma receptor IIIa (FcγRIIIa), recombinant (from UniProt P08637 17-208) | 6.00 | – |
| Fc gamma receptor IIa (FcγRIIa), recombinant (from UniProt P12318 34-217) | – | 6.57 |
